From PMC4334984, “In Vitro Selection of a Single-Stranded DNA Molecular Recognition Element against Clostridium difficile Toxin B and Sensitive Detection in Human Fecal Matter”

Target: Toxin B (Clostridium difficile, UniProt P18177 1-2366)
Test: SPR (single cycle kinetics, 1:1 model); […] (pH not stated); […]; SPR temperature not stated
Conditions: protein: commercial

Toxin B, sequence (P18177 whole entry): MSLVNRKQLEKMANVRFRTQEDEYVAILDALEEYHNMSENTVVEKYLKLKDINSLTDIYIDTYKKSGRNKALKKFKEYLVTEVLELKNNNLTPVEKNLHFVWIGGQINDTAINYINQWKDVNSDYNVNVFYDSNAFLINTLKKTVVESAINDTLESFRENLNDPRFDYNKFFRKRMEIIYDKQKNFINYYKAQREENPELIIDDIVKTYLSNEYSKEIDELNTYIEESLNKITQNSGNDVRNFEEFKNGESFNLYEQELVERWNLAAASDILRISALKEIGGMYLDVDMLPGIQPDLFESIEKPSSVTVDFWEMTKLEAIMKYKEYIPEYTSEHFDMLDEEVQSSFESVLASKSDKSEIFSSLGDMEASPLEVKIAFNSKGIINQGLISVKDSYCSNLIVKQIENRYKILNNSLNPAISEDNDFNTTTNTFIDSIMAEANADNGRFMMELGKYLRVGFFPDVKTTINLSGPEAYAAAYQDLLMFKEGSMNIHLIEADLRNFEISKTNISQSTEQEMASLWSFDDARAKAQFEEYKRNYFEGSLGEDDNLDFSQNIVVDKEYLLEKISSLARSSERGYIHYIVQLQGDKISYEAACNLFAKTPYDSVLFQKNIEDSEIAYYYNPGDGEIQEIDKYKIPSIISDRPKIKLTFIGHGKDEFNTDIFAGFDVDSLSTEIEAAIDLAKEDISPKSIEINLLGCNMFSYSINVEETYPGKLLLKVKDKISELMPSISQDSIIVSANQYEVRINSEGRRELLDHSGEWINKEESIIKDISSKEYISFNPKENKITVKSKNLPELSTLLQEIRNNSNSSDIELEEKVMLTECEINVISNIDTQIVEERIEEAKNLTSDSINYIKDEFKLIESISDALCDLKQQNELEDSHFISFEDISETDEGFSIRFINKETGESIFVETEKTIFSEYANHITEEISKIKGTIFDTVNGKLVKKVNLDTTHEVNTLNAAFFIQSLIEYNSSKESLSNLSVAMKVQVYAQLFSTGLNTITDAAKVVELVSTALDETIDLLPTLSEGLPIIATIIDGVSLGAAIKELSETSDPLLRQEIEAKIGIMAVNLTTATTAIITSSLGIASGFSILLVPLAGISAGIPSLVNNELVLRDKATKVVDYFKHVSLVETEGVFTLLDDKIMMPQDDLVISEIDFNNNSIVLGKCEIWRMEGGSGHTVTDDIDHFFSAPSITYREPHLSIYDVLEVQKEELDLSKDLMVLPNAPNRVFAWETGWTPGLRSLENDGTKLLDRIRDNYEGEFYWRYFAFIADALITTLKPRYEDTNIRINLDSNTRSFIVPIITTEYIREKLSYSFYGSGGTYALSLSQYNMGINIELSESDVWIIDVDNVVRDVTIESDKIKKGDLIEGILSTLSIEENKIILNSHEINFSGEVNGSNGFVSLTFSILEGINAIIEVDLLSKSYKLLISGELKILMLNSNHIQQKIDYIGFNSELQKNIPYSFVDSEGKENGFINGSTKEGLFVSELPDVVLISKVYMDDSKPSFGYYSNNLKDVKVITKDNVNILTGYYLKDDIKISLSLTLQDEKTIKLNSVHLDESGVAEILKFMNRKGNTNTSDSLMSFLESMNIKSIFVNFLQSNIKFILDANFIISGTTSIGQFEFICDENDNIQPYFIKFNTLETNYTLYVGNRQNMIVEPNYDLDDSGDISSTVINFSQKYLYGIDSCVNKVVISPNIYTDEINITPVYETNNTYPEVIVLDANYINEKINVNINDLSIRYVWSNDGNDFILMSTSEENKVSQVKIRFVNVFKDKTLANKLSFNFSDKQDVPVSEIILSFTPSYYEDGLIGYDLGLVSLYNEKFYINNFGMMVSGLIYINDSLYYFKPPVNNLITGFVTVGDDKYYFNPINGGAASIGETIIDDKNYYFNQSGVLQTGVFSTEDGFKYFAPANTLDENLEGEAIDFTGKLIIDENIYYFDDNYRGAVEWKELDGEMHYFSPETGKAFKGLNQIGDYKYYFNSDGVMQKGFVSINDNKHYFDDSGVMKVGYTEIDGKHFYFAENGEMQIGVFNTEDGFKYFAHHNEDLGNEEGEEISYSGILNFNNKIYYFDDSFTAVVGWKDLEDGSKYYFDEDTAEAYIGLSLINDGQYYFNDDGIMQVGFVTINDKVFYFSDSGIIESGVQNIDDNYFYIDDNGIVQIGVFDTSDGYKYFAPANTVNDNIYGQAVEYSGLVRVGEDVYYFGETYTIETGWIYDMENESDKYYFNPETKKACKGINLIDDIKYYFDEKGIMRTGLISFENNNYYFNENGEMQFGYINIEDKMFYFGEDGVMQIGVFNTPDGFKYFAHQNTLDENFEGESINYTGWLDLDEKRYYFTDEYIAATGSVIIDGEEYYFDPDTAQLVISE

B1: R12.69 (SPR) (ssDNA)
DNA: TGTACCGTCTGAGCGATTCGTACCCTCGCTAATGCTGCTTGATGTGTGGCCTCGAATAGCCAGTCAGTGTTAAGGAGTGC
modifications: 5'-amino-C6
- Kd: 47.3 ± 13.7 nM
